Values belong to the binder of their own block, whether it stands above or below them.
Columns and labels:
[1] = biological target: T1, full-length isoform 2 ECD of cynomolgus monkey CD96 (His-tagged) (cynomolgus monkey); experiment: SPR Biacore T200, Protein A capture, 1:1 model, experiment #2
T1 construct: also called His-tagged isoform 2 of cynomolgus monkey CD96; cyno CD96 extracellular domain isoform 2
T1 chain: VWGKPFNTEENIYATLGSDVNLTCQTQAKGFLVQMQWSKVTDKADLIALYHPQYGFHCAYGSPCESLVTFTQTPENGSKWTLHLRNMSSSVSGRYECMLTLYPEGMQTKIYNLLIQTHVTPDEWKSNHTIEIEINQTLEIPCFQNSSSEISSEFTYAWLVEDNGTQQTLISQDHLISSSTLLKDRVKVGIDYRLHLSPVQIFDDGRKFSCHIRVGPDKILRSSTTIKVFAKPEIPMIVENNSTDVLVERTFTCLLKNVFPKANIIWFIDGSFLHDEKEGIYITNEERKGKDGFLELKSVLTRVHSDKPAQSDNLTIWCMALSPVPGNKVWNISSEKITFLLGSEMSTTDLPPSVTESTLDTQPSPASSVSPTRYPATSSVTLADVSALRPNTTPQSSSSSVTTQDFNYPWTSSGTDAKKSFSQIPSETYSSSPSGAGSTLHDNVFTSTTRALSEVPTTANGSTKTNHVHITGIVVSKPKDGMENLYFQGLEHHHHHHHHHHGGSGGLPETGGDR
Method: (§1) Briefly, surface plasmon resonance experiments were performed using a Biacore T200 instrument, and the association rate (kₐ), dissociation rate (kd), and dissociation constant (KD) were calculated from each experiment using a 1:1 binding model with Biacore T200 Evaluation Software.
(§2) Multispecific molecules were captured using a 30-sec injection at a flow rate of 10 μl/min to reach about 350 resonance units (RUs). […] The sensor chip was regenerated between cycles with two 30-sec injections of 10 mM glycine, pH 1.5. Sensorgrams were evaluated and fit to a simple Langmuir 1:1 interaction model using the global data analysis option of BIAevaluation 3.0 software. Data quality was verified by visually inspecting deviations and curve fitting, and by evaluating the parameters of Rₘₐₓ, Chi2, and Tc.

[2] = biological target: T2, full-length ECD of human TIGIT (His-tagged) (human); experiment: as above
T2 construct: also called His-tagged human TIGIT; human TIGIT extracellular domain
T2 chain: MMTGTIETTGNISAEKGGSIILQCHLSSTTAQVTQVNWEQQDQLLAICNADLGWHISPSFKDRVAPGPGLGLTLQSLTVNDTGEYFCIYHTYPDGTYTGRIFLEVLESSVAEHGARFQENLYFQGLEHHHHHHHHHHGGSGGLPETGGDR
Method: as §1
as §2, with “1000” for “350”

[3] = biological target: T3, wild type full-length cynomolgus monkey TIGIT expressed on CHO cells (cynomolgus monkey, UniProt A0A7N9I9V4 89-312); experiment: flow cytometry, blocking of human CD155-Fc-PE binding to CHO cells expressing cynomolgus TIGIT
T3 construct: whole, on cells; also called cynomolgus TIGIT-CHO cells

[4] = biological target: T4, wild type full-length human TIGIT expressed on cells (human, UniProt Q495A1 22-244); experiment: flow cytometry, human TIGIT CHO cells, geomean of 2 experiments
T4 construct: whole, on cells; also called human TIGIT-CHO; human TIGIT CHO cells
T4 sequence (looked up): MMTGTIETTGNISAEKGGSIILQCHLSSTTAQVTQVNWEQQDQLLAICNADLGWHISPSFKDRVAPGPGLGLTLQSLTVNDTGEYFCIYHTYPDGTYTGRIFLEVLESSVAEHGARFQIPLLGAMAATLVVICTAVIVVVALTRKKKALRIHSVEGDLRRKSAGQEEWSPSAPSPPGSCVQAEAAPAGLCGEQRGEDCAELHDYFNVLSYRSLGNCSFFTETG
Method: For the antibody binding assay, a frozen aliquot of human TIGIT-CHO cells was thawed at 37° C. and then transferred to a tube containing DPBS supplemented with 0.5% Bovine Serum Albumin and 0.05% Sodium Azide (FACS Buffer). Cells were centrifuged at 300 g for five minutes. The supernatant was discarded, and cells resuspended in FACS buffer were seeded in a 96-well U-bottom tissue culture plate at a density of 2×10⁵ cells per well in 50 μL. In a separate microplate, a 2× concentrated intermediate stock of each antibody was prepared. Antibodies were serially diluted 1-to-4 in FACS buffer. A total of 11 working dilutions ranging from 60 μg/mL to 0.000057 μg/mL were prepared. Fifty microlitres of each dilution were then transferred to the microplate containing human TIGIT-CHO cells. The cells were then incubated for 45 minutes at 4° C. […] After a 30-minute incubation on ice, the cells were washed twice with cold FACS Buffer, and the cells were analyzed by flow cytometry (BD LSR Fortessa Flow Cytometer). The data were analyzed using the FlowJo software by sequentially gating the FSC-A vs. SSC-A, and SSC-H vs. SSC-A. Mean fluorescence intensity (MFI) values for PE were calculated, and the data were plotted by GraphPad Prism software.

[5] = biological target: T4, wild type full-length human TIGIT …; experiment: flow cytometry, blocking of CD155-Fc-PE binding to human TIGIT CHO cells, geomean of 3 experiments
Method: A 4× concentrated intermediate stock of each antibody was prepared in a microplate. Antibodies were serially diluted 1-to-4 in FACS buffer. […] Lastly, 25 μL of human TIGIT-CHO cells, prepared as described above, were added to each well. After a 30-minute incubation on ice, the cells were washed twice with cold FACS Buffer, and the cells were analyzed by flow cytometry (BD LSR Fortessa Flow Cytometer). The data were analyzed using the FlowJo software by sequentially gating on the FSC-A vs. SSC-A and SSC-H vs. SSC-A. Mean fluorescence intensity (MFI) values for PE were calculated, and the data were plotted by GraphPad Prism software and analyzed as described above.

T3 sequence (A0A7N9I9V4 entry or part of it): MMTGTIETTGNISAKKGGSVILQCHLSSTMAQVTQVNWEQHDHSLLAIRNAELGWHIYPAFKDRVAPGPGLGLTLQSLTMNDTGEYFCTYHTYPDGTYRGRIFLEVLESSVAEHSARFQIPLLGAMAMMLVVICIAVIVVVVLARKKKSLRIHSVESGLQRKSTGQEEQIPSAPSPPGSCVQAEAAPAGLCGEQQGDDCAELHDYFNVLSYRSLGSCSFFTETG

Kd [1]: 42.7 nM
koff [1]: 0.00324 s⁻¹
kon [1]: 75900 M⁻¹ s⁻¹
B1: anti-TIGIT×CD96 multispecific molecule BA123 (bispecific antibody, human IgG1, kappa, lambda)
heavy 1: QVQLVQSGAEVKKPGASVKVSCKASGYTFTSYGISWVRQAPGQGLEWMGWISAYNANTNYAQKLQGRVTMTTDTSTSTAYMELRSLRSDDTAVYYCARSAGVLGGMDVWGRGTLVTVSSASTKGPSVFPLAPSSKSTSGGTAALGCLVKDYFPEPVTVSWNSGALTSGVHTFPAVLQSSGLYSLSSVVTVPSSSLGTQTYICNVNHKPSNTKVDKRVEPKSCDKTHTCPPCPAPELLGGPDVFLFPPKPKDTLMISRTPEVTCVVVDVSHEDPEVKFNWYVDGVEVHNAKTKPREEQYNSTYRVVSVLTVLHQDWLNGKEYKCKVSNKALPAPIEKTISKAKGQPREPQVYTLPPSREEMTKNQVSLSCAVKGFYPSDIAVEWESNGQPENNYKTTPPVLDSDGSFFLVSKLTVDKSRWQQGNVFSCSVMHEALHNHYTQKSLSLSPG
light 1: not shown
heavy 2: EVQLVQSGAEVKKPGSSVKVSCKASGYTFASYGISWVRQAPGQGLEWMGGITPFFNRVDVAEKFQGRVTITADKSTSTAYIELSSLRSEDTAVYYCARDLRRGGVGDAFDIWGRGTLVTVSSASTKGPSVFPLAPSSKSTSGGTAALGCLVKDYFPEPVTVSWNSGALTSGVHTFPAVLQSSGLYSLSSVVTVPSSSLGTQTYICNVNHKPSNTKVDKRVEPKSCDKTHTCPPCPAPELLGGPDVFLFPPKPKDTLMISRTPEVTCVVVDVSHEDPEVKFNWYVDGVEVHNAKTKPREEQYNSTYRVVSVLTVLHQDWLNGKEYKCKVSNKALPLPEEKTISKAKGQPREPQVYTLPPSREEMTKNQVSLWCLVKGFYPSDIAVEWESNGQPENNYKTTPPVLDSDGSFFLYSKLTVDKSRWQQGNVFSCSVMHEALHNHYTQKSLSLSPG
light 2: QSALTQPRSVSGSPGQSVTISCTGTSPDVGSHAYRSWYQQHPGKAPKLMIYEVSYRPSGVSNRFSGSKSGNTASLTISGLQAEDEADYYCSSYPPSSATVFGAGTKLTVLGQPKAAPSVTLFPPSSEELQANKATLVCLISDFYPGAVTVAWKADSSPVKAGVETTTPSKQSNNKYAASSYLSLTPEQWKSHRSYSCQVTHEGSTVEKTVAPTEC
notes: copies: 1 + 1 + 1 + 1

Kd [2]: 0.611 nM
koff [2]: 0.000385 s⁻¹
kon [2]: 631000 M⁻¹ s⁻¹
IC50 (read off the curve) [3]: ~3 µg/mL
EC50 [4]: 0.033 µg/mL
B2: anti-TIGIT×CD96 multispecific molecule BA127 (bispecific antibody, human IgG1, kappa, lambda)
heavy 1: QVQLVQSGAEVKKPGASVKVSCKASGYTFTTYALHWVRQAPGQRLEWMGWINTGSGDTKYSQKFQGRVTITRDTSASTAYMELSSLRSEDTAVYYCARSLGVYYGMDVWGQGTLVTVSSASTKGPSVFPLAPSSKSTSGGTAALGCLVKDYFPEPVTVSWNSGALTSGVHTFPAVLQSSGLYSLSSVVTVPSSSLGTQTYICNVNHKPSNTKVDKRVEPKSCDKTHTCPPCPAPELLGGPDVFLFPPKPKDTLMISRTPEVTCVVVDVSHEDPEVKFNWYVDGVEVHNAKTKPREEQYNSTYRVVSVLTVLHQDWLNGKEYKCKVSNKALPAPIEKTISKAKGQPREPQVYTLPPSREEMTKNQVSLSCAVKGFYPSDIAVEWESNGQPENNYKTTPPVLDSDGSFFLVSKLTVDKSRWQQGNVFSCSVMHEALHNHYTQKSLSLSPG
light 1: not shown
heavy 2: EVQLVQSGAEVKKPGSSVKVSCKASGYTFASYGISWVRQAPGQGLEWMGGITPFFNRVDVAEKFQGRVTITADKSTSTAYIELSSLRSEDTAVYYCARDLRRGGVGDAFDIWGRGTLVTVSSASTKGPSVFPLAPSSKSTSGGTAALGCLVKDYFPEPVTVSWNSGALTSGVHTFPAVLQSSGLYSLSSVVTVPSSSLGTQTYICNVNHKPSNTKVDKRVEPKSCDKTHTCPPCPAPELLGGPDVFLFPPKPKDTLMISRTPEVTCVVVDVSHEDPEVKFNWYVDGVEVHNAKTKPREEQYNSTYRVVSVLTVLHQDWLNGKEYKCKVSNKALPLPEEKTISKAKGQPREPQVYTLPPSREEMTKNQVSLWCLVKGFYPSDIAVEWESNGQPENNYKTTPPVLDSDGSFFLYSKLTVDKSRWQQGNVFSCSVMHEALHNHYTQKSLSLSPG
light 2: QSALTQPRSVSGSPGQSVTISCTGTSPDVGSHAYRSWYQQHPGKAPKLMIYEVSYRPSGVSNRFSGSKSGNTASLTISGLQAEDEADYYCSSYPPSSATVFGAGTKLTVLGQPKAAPSVTLFPPSSEELQANKATLVCLISDFYPGAVTVAWKADSSPVKAGVETTTPSKQSNNKYAASSYLSLTPEQWKSHRSYSCQVTHEGSTVEKTVAPTEC
notes: Anti-CD96 arm = BA139, anti-TIGIT arm = BA150; copies: 1 + 1 + 1 + 1

IC50 [5]: 0.0084 µg/mL
B3: anti-TIGIT monospecific antibody BA148 (antibody, human IgG1, lambda)
heavy: EVQLVQSGAEVKKPGSSVKVSCKASGYTFASYGISWVRQAPGQGLEWMGGITPFFNRVDVAEKFQGRVTITADKSTSTAYIELSSLRSEDTAVYYCARDLRRGGVGDAFDIWGRGTLVTVSSASTKGPSVFPLAPSSKSTSGGTAALGCLVKDYFPEPVTVSWNSGALTSGVHTFPAVLQSSGLYSLSSVVTVPSSSLGTQTYICNVNHKPSNTKVDKRVEPKSCDKTHTCPPCPAPELLGGPDVFLFPPKPKDTLMISRTPEVTCVVVDVSHEDPEVKFNWYVDGVEVHNAKTKPREEQYNSTYRVVSVLTVLHQDWLNGKEYKCKVSNKALPLPEEKTISKAKGQPREPQVYTLPPSREEMTKNQVSLTCLVKGFYPSDIAVEWESNGQPENNYKTTPPVLDSDGSFFLYSKLTVDKSRWQQGNVFSCSVMHEALHNHYTQKSLSLSPGK
light: QSALTQPRSVSGSPGQSVTISCTGTSPDVGSHAYRSWYQQHPGKAPKLMIYEVSYRPSGVSNRFSGSKSGNTASLTISGLQAEDEADYYCSSYPPSSATVFGAGTKLTVLGQPKAAPSVTLFPPSSEELQANKATLVCLISDFYPGAVTVAWKADSSPVKAGVETTTPSKQSNNKYAASSYLSLTPEQWKSHRSYSCQVTHEGSTVEKTVAPTEC
notes: IgG1; also called anti-TIGIT IgG1 antibody BA148
